Reference: the Immune Epitope Database (IEDB)

Key:
[1] = target: HLA-A*02:50; assay: IEDB peptide-MHC binding, purified MHC/competitive/fluorescence; filed as Kd, often an IC50 or EC50 that approximates it; ≥ and ≤ were set here for values at or beyond the usual limits of such assays
[2] = target: HLA-A*02:01; assay: IEDB peptide-MHC binding, purified MHC/direct/fluorescence; filed as Kd, often an IC50 or EC50 that approximates it; ≥ and ≤ were set here for values at or beyond the usual limits of such assays
[3] = target: HLA-A*69:01; assay: as above
[4] = target: HLA-A*02:11; assay: as above; conditions: source organism: Yersinia enterocolitica subsp. enterocolitica 8081
[5] = target: HLA-B*08:01; assay: IEDB peptide-MHC binding, purified MHC/competitive/fluorescence; filed as Kd, often an IC50 or EC50 that approximates it; ≥ and ≤ were set here for values at or beyond the usual limits of such assays
[6] = target: HLA-B*07:02; assay: as above
[7] = target: HLA-B*15:01; assay: as above
[8] = target: HLA-B*51:01; assay: as above
[9] = target: HLA-B*58:01; assay: as above; conditions: source organism: Escherichia coli
[10] = target: HLA-B*46:01; assay: as above; conditions: source organism: Burkholderia mallei SAVP1
[11] = target: HLA-A*31:01; assay: as above; conditions: source organism: Burkholderia mallei SAVP1
[12] = target: HLA-B*18:01; assay: as above; conditions: source organism: Burkholderia mallei SAVP1
[13] = target: HLA-A*24:03; assay: as above; conditions: source organism: Burkholderia mallei SAVP1
[14] = target: HLA-A*02:16; assay: as above; conditions: source organism: Burkholderia mallei SAVP1
[15] = target: HLA-A*03:01; assay: as above; conditions: source organism: Burkholderia mallei SAVP1
[16] = target: HLA-A*29:02; assay: as above; conditions: source organism: Burkholderia mallei SAVP1
[17] = target: HLA-B*39:01; assay: as above; conditions: source organism: Burkholderia mallei SAVP1
[18] = target: HLA-B*57:01; assay: as above; conditions: source organism: Burkholderia mallei SAVP1
[19] = target: HLA-A*02:03; assay: as above; conditions: source organism: Burkholderia mallei SAVP1
[20] = target: HLA-A*68:02; assay: as above; conditions: source organism: Burkholderia mallei SAVP1
[21] = target: HLA-B*15:17; assay: as above; conditions: source organism: Burkholderia mallei SAVP1
[22] = target: HLA-A*02:19; assay: as above; conditions: source organism: Burkholderia mallei SAVP1
[23] = target: HLA-B*27:03; assay: as above; conditions: source organism: Burkholderia mallei SAVP1
[24] = target: HLA-A*02:01; assay: as above; conditions: source organism: Burkholderia mallei SAVP1
[25] = target: HLA-A*69:01; assay: as above; conditions: source organism: Burkholderia mallei SAVP1
[26] = target: HLA-A*02:12; assay: as above; conditions: source organism: Burkholderia mallei SAVP1
[27] = target: HLA-A*26:01; assay: as above; conditions: source organism: Burkholderia mallei SAVP1
[28] = target: HLA-A*23:01; assay: as above; conditions: source organism: Burkholderia mallei SAVP1
[29] = target: HLA-A*02:11; assay: as above; conditions: source organism: Burkholderia mallei SAVP1
[30] = target: HLA-B*08:01; assay: IEDB peptide-MHC binding, purified MHC/direct/fluorescence; filed as Kd, often an IC50 or EC50 that approximates it; ≥ and ≤ were set here for values at or beyond the usual limits of such assays; conditions: source organism: Escherichia coli 536
[31] = target: HLA-A*31:01; assay: as above; conditions: source organism: Escherichia coli 536
[32] = target: HLA-A*03:01; assay: as above; conditions: source organism: Escherichia coli
[33] = target: HLA-B*07:02; assay: as above; conditions: source organism: Escherichia coli 536
[34] = target: HLA-B*15:01; assay: as above; conditions: source organism: Escherichia coli
[35] = target: HLA-B*40:01; assay: as above; conditions: source organism: Escherichia coli 536
[36] = target: HLA-B*58:01; assay: as above; conditions: source organism: Escherichia coli 536
[37] = target: HLA-A*26:01; assay: as above; conditions: source organism: Escherichia coli 536
[38] = target: HLA-B*27:05; assay: as above; conditions: source organism: Escherichia coli 536
[39] = target: HLA-A*11:01; assay: as above; conditions: source organism: Escherichia coli 536
[40] = target: HLA-A*01:01; assay: as above; conditions: source organism: Escherichia coli 536
[41] = source organism: Yersinia pestis
[42] = source organism: Salmonella enterica subsp. enterica serovar Paratyphi B str. SPB7
[43] = source organism: Escherichia coli
[44] = source organism: Burkholderia mallei SAVP1

## FLRFGDFKL
[1]; source organism: Yersinia pestis Nepal516
  Kd: ≤ 0.0001 µM
[2]; [41]
  Kd: 0.0055 µM
[3]; [41]
  Kd: 18.3 µM
[4]
  Kd: 0.104 µM

## LPLAKPMVI
[5]; [42]
  Kd: 0.211 µM
[6]; [42]
  Kd: 0.0624 µM
[7]; [42]
  Kd: ≥ 20 µM
[8]; [42]
  Kd: 0.626 µM

## RAAPLMQSL
[5]; [43]
  Kd: ≥ 20 µM
[6]; [43]
  Kd: 0.012 µM
[9]
  Kd: 0.0293 µM

## RFNAIWFNH
[10]
  Kd: ≥ 20 µM
[11]
  Kd: 0.0041 µM
[12]
  Kd: ≥ 20 µM
[13]
  Kd: ≥ 20 µM
[14]
  Kd: ≥ 20 µM
[15]
  Kd: ≥ 20 µM
[16]
  Kd: ≥ 20 µM
[17]
  Kd: ≥ 20 µM
[18]
  Kd: ≥ 20 µM
[19]
  Kd: ≥ 20 µM
[7]; [44]
  Kd: ≥ 20 µM
[20]
  Kd: ≥ 20 µM
[21]
  Kd: ≥ 20 µM
[22]
  Kd: ≥ 20 µM
[23]
  Kd: ≥ 20 µM
[24]
  Kd: ≥ 20 µM
[25]
  Kd: ≥ 20 µM
[26]
  Kd: ≥ 20 µM
[27]
  Kd: ≥ 20 µM
[8]; [44]
  Kd: ≥ 20 µM
[28]
  Kd: ≥ 20 µM
[29]
  Kd: ≥ 20 µM

## RMYGISPWT
[1]; [43]
  Kd: 0.0184 µM
[30]
  Kd: ≥ 20 µM
[31]
  Kd: ≥ 20 µM
[32]
  Kd: 0.799 µM
[33]
  Kd: ≥ 20 µM
[34]
  Kd: 0.455 µM
[2]; [43]
  Kd: 0.507 µM
[3]; source organism: Escherichia coli 536
  Kd: ≥ 20 µM
[35]
  Kd: ≥ 20 µM
[36]
  Kd: ≥ 20 µM
[37]
  Kd: ≥ 20 µM
[38]
  Kd: ≥ 20 µM
[39]
  Kd: ≥ 20 µM
[40]
  Kd: ≥ 20 µM
